Experiments:
[1] = target: OmpF (Escherichia coli) (UniProt P02931); assay: ITC; conditions: cited from earlier work
[2] = target: OmpF trimer (Escherichia coli (endogenous in B^E3000)) (UniProt P02931); assay: ITC

Substance | Kd [1] [µM] | Kd [2] [µM] | dH [2] [kcal·mol^–1] | stoichiometry N [2]
Colicin E9 OBS1 peptide OBS1 (from UniProt P09883) | 2 |  |  | 
Colicin E9 OBS2 peptide | 24 |  |  | 
(OBS2)3, TMEA-mediated tridentate OBS2 in the form of a colicin DNase fusion (S71C ColE9^53–83-DNase) (from UniProt P09883 53-83) |  | 0.48 | -5.64 | 3

From paper PMC6093495
